Experimental data reported in patent US20180207294A1, “NON-ALCOHOLIC FATTY LIVER REGULATING FACTOR 14-3-3 PROTEIN” (Korea University Research and Business Foundation, priority 2015, published 2018).

Legend:
PPARγ2 = biological target: T1, PPARγ2 (Homo sapiens, UniProt P37231); assay: aP2 promoter luciferase assay of PPARγ2 transcriptional activity in HEK-293T cells; format: cell-based
T1 construct: host or cells: HEK-293T
T1 sequence (P37231 1-505): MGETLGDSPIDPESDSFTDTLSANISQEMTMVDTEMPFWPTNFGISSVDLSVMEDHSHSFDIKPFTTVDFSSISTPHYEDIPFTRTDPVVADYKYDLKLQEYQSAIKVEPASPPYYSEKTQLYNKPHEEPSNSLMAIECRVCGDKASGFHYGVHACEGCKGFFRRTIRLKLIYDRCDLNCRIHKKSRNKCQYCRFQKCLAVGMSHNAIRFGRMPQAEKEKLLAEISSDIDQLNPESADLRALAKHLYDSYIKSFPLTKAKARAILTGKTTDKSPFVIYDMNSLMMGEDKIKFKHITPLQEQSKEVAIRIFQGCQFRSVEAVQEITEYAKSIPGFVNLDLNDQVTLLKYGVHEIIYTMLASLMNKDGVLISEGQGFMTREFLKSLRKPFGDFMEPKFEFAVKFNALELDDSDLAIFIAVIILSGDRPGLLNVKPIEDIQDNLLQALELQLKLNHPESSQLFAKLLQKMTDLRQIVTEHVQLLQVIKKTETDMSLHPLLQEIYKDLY
Protocol: The transcriptional activity of PPARγ2 plays a vital role in expression of liver diseases-associated proteins. Thus, the transcriptional activity of PPARγ2 was measured using an aP2 promoter regulated by PPARγ2, and the role of 7 types of 14-3-3 proteins was investigated.
For this, HEK-293T cells were seeded in a 12-well plate at a density of 1×10^5 cells per each well, and then transfected with an aP2 promoter construct (0.5 μg) and 14-3-3 isoform proteins (α, β, γ, ε, ζ, π, θ) (0.5 μg) or si-14-3-3β and si-14-3-3γ siRNA (5 nM and 10 nM, Santa Cruz) using an E-fection plus reagent (Lugen). A ratio of DNA to the E-fection plus reagent was 1:2, and this method was performed according to a manufacturer's manual. After transfection, the corresponding cells were treated with 10 μM of pioglitazone (Pio, Santa Cruz) for 24 hours, washed with ice-cold PBS, and lysed using 80 μl/well of a reporter lysis buffer (Promega, Madison, Wis.), and the lysed cells were centrifuged at 10,000×g and 4° C. for 10 minutes to collect a supernatant, and luciferase activity was measured. As an instrument, Luminometer 20/20n (Turner Biosystems, Sunnyvale, Calif.) was used. For normalization, the cells were cotransfected with pSV40-β-galactosidase. For the collected supernatant, β-galactosidase activity was measured and the luciferase activity was revised, and the obtained values were plotted. At this time, a β-galactosidase enzyme analysis system (Promega, Madison, Wis.) was used, and analysis was performed using a DU530 spectrophotometer (Beckman Instruments, Palo Alto, Calif.).

[1] = tested on: primary mouse hepatocytes; assay: PPARγ2 target gene mRNA (real-time PCR) with 14-3-3 overexpression and oleic acid, primary mouse hepatocytes; format: cell-based; conditions: 14-3-3 overexpression, oleic acid, FIG. 7B
Protocol: HepG2 cells were seeded in a 6-well plate at a density of 4×10^5 cells per each well, and then transfected with GFP-14-3-3β DNA (4 μg) or GFP-14-3-3γ DNA (4 μg) using an E-fection plus reagent (Lugen). A ratio of DNA to the E-fection plus reagent was 1:2, and this method was performed according to a manufacturer's manual. After transfection, the cells were treated with 200 μM of oleic acid (OA) for 72 hours, and for mRNA extraction, the corresponding cells were lysed with 1 ml/well of TRIzol (Invitrogen), 200 μl of chloroform was added thereto and mixed well, the resultant cells were maintained at room temperature for 5 minutes and then centrifuged at 12,000×g and 4° C. for 15 minutes, the obtained supernatant was mixed with 500 μl of isopropanol and then put on ice for 10 minutes, and the resulting supernatant was centrifuged at 12,000×g and 4° C. for 15 minutes to remove a supernatant, and then pellets were dissolved with tertiary distilled water treated with diethyl pyrocarbonate (DEPC). 2 μg of mRNA was synthesized into cDNA using a Superscript First Strand cDNA Synthesis Kit (Bioneer, Daejeon, South Korea) and the synthesized cDNA as a template was amplified through polymerase chain reaction (PCR) using primers specific to PPARγ2 (SEQ ID NOS: 1 and 2), 14-3-3β (SEQ ID NOS: 3 and 4), 14-3-3γ (SEQ ID NOS: 5 and 6), SREBP-1c, FAT/CD36, and β-actin of humans, and was amplified through real-time PCR using primers specific to SREBP-1c, FAT/CD36, and GAPDH of mice. β-actin and GAPDH were used as controls to see whether mRNAs of the respective cells were compared in the same amount.

[2] = 14-3-3β / 14-3-3γ overexpressed according to concentration, FIG. 1B, 1C
[3] = overexpression of 14-3-3 isoform proteins (0.5 μg), 10 μM pioglitazone 24 hours, FIG. 1A

Substance	transcriptional activity of PPARγ2 (activity of the aP2 promoter) (PPARγ2; [2])	transcriptional activity of PPARγ2 (activity of the aP2 promoter) (PPARγ2; [3])	mRNA expression of FAT/CD36 [1]	mRNA expression of SREBP-1c [1]
14-3-3β: 14-3-3 isoform protein, overexpressed by DNA transfection; regulating factor that increases transcriptional activity of PPARγ2	increased the transcriptional activity of PPARγ2 in a concentration-dependent manner	increased the transcriptional activity of PPARγ2	further increased	further increased
14-3-3γ: 14-3-3 isoform protein, overexpressed by DNA transfection; regulating factor that decreases transcriptional activity of PPARγ2	reduced the transcriptional activity of PPARγ2 in a concentration-dependent manner	decreased the transcriptional activity of PPARγ2	reduced	reduced
